B2: human ZNRF3 (residues 56-267, ECD-TMD) (domain or fragment, UniProt Q9ULT6 56-267, looked up)
chain: KETAFVEVVLFESSPSGDYTTYTTGLTGRFSRAGATLSAEGEIVQMHPLGLCNNNDEEDLYEYGWVGVVKLEQPELDPKPCLTVLGKAKRAVQRGATAVIFDVSENPEAIDQLNQGSEDPLKRPVVYVKGADAIKLMNIVNKQKVARARIQHRPPRQPTEYFDMGIFLAFFVVVSLVCLILLVKIKLKQRRSQNSMNRLAVQALEKMETRKF
notes: human ZNRF3, residues 56-267 (ECD-TMD), UniProt Q9ULT6; Cloned with the rabbit immunoglobulin heavy chain V signal peptide at the N-terminus in place of its own; no tag is named for this construct; also called Zinc and Ring Finger 3

Tests used:
[1] = target: human ZNRF3 (residues 56-267, ECD-TMD) (human) (UniProt Q9ULT6)
[2] = target: T1, human LGR4 (residues 1-822), ECD and TMD, expressed in ExpiSf9 cells (human, UniProt Q9BXB1 25-822); experiment: cryo-EM structure; individually purified LGR4 and RSPO2 mixed at a 1:2 ratio for 3 hours at 4 °C, complex isolated by SEC (25 mM HEPES-NaOH pH 7.5, 0.15 M NaCl, 0.01% GDN); overall resolution 4.0 Å; conditions: both partners purified
T1 construct: signal peptide in the construct; human LGR4, residues 1-822 (ECD and TMD, without the ICD), UniProt Q9BXB1; no cleavage is described; also called Leucine-rich repeat-containing G protein-coupled receptor 4; apo LGR4; source: ExpiSf9 (baculovirus), membrane fraction solubilised in LMNG/CHS, purified (Ni-NTA, SEC)

[3] = target: B2; experiment: cryo-EM structure; LGR4, RSPO2 and ZNRF3 co-expressed in Expi293F, complex solubilised in LMNG/CHS and purified by anti-DYKDDDDK resin (FLAG on LGR4) and SEC in 0.01% GDN; two complexes in one sample, 1:1:2 (3.2 Å) and 2:2:2 (3.5 Å); conditions: both partners purified
[4] = target: T2, human LGR4 (residues 1-822), ECD and TMD, expressed in Expi293F cells (human, UniProt Q9BXB1 25-822); experiment: as above; conditions: both partners purified
T2 construct: signal peptide in the construct; human LGR4, residues 1-822 (ECD and TMD), UniProt Q9BXB1; no cleavage is described. pEZT-BM vector; not shown: FLAG, C-terminal, kept

[5] = target: the molecule itself; experiment: as above

## full-length human LGR4 (CD4 TMD): TMD (7-TM, aa526-822) replaced with that of CD4 (1-TM) (from UniProt Q9BXB1 25-525; Q9BXB1 823-951) (receptor)
[1]
  RSPO2-induced TOPFlash Wnt/β-catenin reporter activity in HEK293T cells (siRNA against LGR4 and LGR5; 5% Wnt3a-conditioned medium, 3 ng/mL RSPO2), against wild-type LGR4: 50 % reduction

B1: human RSPO2 (residues 20-143, Fu1-2 domains) (ligand, UniProt Q6UXX9 20-143, looked up)
chain: HCQGNRWRRSKRASYVSNPICKGCLSCSKDNGCSRCQQKLFFFLRREGMRQYGECLHSCPSGYYGHRAPDMNRCARCRIENCDSCFSKDFCTKCKVGFYLHRGRCFDECPDGFAPLEETMECVE
notes: human RSPO2, Fu1-2 domains, UniProt Q6UXX9; no cleavage is described; Codon-optimised synthetic DNA in pEZT-BM; also called R-spondin 2; source: Expi293F, secreted into the medium, purified (Ni-NTA, SEC); also co-transfected in Expi293F with LGR4 and ZNRF3 and co-purified with them
[2]
  stoichiometry N: 1
[3]
  binding result: binds

## B2
[4]
  binding result: binds
[5]
  stoichiometry N: 2

Source: publication PMC12488874, “Structural insights into Wnt/β-catenin signaling regulation by LGR4, R-spondin, and ZNRF3” (Nature Communications, 2025)
